In IntAct's records for PubMed 22334672:

B1: mRNA export factor (Human herpesvirus 1 (strain 17) (HHV-1)), P10238 (parent)
chain: MATDIDMLIDLGLDLSDSDLDEDPPEPAESRRDDLESDSSGECSSSDEDMEDPHGEDGPEPILDAARPAVRPSRPEDPGVPSTQTPRPTERQGPNDPQPAPHSVWSRLGARRPSCSPEQHGGKVARLQPPPTKAQPARGGRRGRRRGRGRGGPGAADGLSDPRRRAPRTNRNPGGPRPGAGWTDGPGAPHGEAWRGSEQPDPPGGQRTRGVRQAPPPLMTLAIAPPPADPRAPAPERKAPAADTIDATTRLVLRSISERAAVDRISESFGRSAQVMHDPFGGQPFPAANSPWAPVLAGQGGPFDAETRRVSWETLVAHGPSLYRTFAGNPRAASTAKAMRDCVLRQENFIEALASADETLAWCKMCIHHNLPLRPQDPIIGTTAAVLDNLATRLRPFLQCYLKARGLCGLDELCSRRRLADIKDIASFVFVILARLANRVERGVAEIDYATLGVGVGEKMHFYLPGACMAGLIEILDTHRQECSSRVCELTASHIVAPPYVHGKYFYCNSLF
partner: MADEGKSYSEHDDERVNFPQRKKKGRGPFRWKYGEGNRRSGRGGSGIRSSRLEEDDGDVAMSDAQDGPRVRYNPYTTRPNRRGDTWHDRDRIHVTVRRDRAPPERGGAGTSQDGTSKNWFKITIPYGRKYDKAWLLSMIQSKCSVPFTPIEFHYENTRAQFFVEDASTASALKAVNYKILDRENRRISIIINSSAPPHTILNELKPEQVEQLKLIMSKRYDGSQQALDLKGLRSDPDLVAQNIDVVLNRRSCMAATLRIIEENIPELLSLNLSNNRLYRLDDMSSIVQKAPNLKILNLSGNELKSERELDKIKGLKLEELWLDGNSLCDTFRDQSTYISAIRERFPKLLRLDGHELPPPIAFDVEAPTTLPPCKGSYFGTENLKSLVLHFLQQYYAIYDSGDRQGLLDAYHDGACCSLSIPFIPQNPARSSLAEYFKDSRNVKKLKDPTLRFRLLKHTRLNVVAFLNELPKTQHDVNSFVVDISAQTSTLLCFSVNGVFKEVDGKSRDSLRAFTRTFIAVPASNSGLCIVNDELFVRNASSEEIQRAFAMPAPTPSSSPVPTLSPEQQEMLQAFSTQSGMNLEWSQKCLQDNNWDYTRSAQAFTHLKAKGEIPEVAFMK

Variants of: B1
Settings: with nxf1_human NXF1, Q9UBU9

| Variant | effect of a mutation on the interaction |
| --- | --- |
| P465L;G466E | disrupting interaction |
